The test system of one series is HEK 293 cells (293). As to the kind of experiment: Cell viability of untransduced HEK 293 cells. Particulars: 293 cells (low CD276); various concentrations (nM); FIG. 7. The method, then: (§1) HEK 293 cells (293) or HEK 293 cells transduced with CD276 (293/CD276) were treated with MMAE alone, m8524 (m276) (SEQ ID NOs: 26 and 27) antibody alone, m825 (irrelevant control antibody)-ADC, or m8524-ADC. The drug of the ADCs was MMAE.

Another series concerns 293/CD276 cells. Description: Cell viability of HEK 293 cells transduced with CD276. The conditions noted are these: FIG. 7. How it is done: as §1
The subject of series [1] is human CD276-AP fusion protein. Description: ELISA binding assay, human CD276. The conditions noted are these: scFv-Fc fusion protein in culture medium, serially diluted; CD276-AP coated at 2 μg/ml; FIG. 1A. How it is done:
(§2) The scFv-encoding inserts of the unique clones were digested with SfiI and ligated into modified pSecTag bearing the same set of SfiI sites and Fc-Avi tag for soluble expression. These constructs were transfected into 293T cells for expression following the manufacturer's protocol. After 72 hr of growth, the scFv-Fc fusion proteins in the culture medium were used for the ELISA binding assay.
(§3) 50 μl of the diluted human (FIG. 1A) or mouse (FIG. 1B) CD276-AP fusion protein in PBS at 2 μg/ml was coated in a 96-well plate at 4° C. overnight. Transiently expressed scFv-Fc fusion protein in the culture medium was serially diluted and added into the target protein coated wells. After washing, a 1:3000 diluted horseradish peroxidase (HRP) conjugated goat anti-human IgG antibody was added for 1 hr at RT. After washing, 3, 3, 5, 5′-Tetramethylbenzidine (TMB) substrate was added, and the optical density (O.D.) was read at 450 nm.

Series [2] relates to mouse CD276-AP fusion protein. Description: ELISA binding assay, mouse CD276. The conditions noted are these: scFv-Fc fusion protein in culture medium, serially diluted; CD276-AP coated at 2 μg/ml; FIG. 1B. How it is done: as §2, §3
Sequence of mouse CD276-AP fusion protein (Q8VE98 29-248 limits assumed): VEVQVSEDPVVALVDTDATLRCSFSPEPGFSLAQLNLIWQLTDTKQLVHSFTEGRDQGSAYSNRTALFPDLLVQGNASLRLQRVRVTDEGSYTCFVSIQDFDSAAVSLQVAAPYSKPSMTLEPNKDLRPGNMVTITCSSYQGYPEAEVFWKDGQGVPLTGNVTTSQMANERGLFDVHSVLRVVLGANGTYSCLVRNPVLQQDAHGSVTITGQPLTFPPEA
On the technique in general: An ELISA detects its analyte on a solid surface through an enzyme-linked reagent.

Changes are numbered by the printed parent chain. Non-standard residues stand in square brackets, D forms with d. Residues, ends and D or L forms follow the SMILES beside them. *: point of attachment. Dolaproine = CO[C@@H]([C@@H]1CCCN1)[C@@H](C)C(=O)O; Dil = CC[C@H](C)[C@H](NC)[C@@H](CC(=O)O)OC; X1 = C[C@@H](N*)[C@@H](O)c1ccccc1; NMeV = CN[C@H](C(=O)O)C(C)C

On to `CC[C@H](C)[C@@H]([C@@H](CC(=O)N1CCC[C@H]1[C@H](OC)[C@@H](C)C(=O)N[C@H](C)[C@@H](O)c1ccccc1)OC)N(C)C(=O)[C@@H](NC(=O)[C@@H](NC)C(C)C)C(C)C` [MMAE, monomethyl auristatin E, reference compound] (H-[NMeV]V[Dil][Dolaproine]-X1), for which the “cytotoxicity (cell viability, % of control)” value with HEK 293 cells (293) is on record as “cytotoxic to all cells”; in the series on 293/CD276 cells (293/CD276 cells (high CD276), various concentrations (nM)), “cytotoxic to all cells”. Further, the “selectivity for CD276-expressing cells” value in the series with 293/CD276 cells (293/CD276 versus 293 cells) is “no selectivity”.

B1: m852: anti-CD276 antibody clone, heavy chain comprising SEQ ID NO: 7 and light chain comprising SEQ ID NO: 8 (antibody, V domains shown)
VH: QVQLQQSGAEVKKPGSSVKVSCKASGGTFSSYAISWVRQAPGQGLEWMGGIIPILGIANYAQKFQGRVTITADESTSTAYMELSSLRSEDTAVYYCARGRRSGSYYMGYWGQGTLVTVSS
VL: EIVLTQSPATLSLSPGERATLSCRASQSVSSNLAWYQQKPGQAPRLLIYDTSTRATGIPARFSGSGSGTEFTLTISSLQSEDFAVYYCQQYNNWPPAYTFGQGTKLEIK
In the case of B1, the “binding to human CD276 (OD at 450 nm, ELISA)” value in series [1] was “bound”. Further, in series [2], the “binding to mouse CD276 (OD at 450 nm, ELISA)” value is listed as “bound”.

B2: m857: anti-CD276 antibody clone, heavy chain comprising SEQ ID NO: 17 and light chain comprising SEQ ID NO: 18 (antibody, V domains shown)
VH: QVQLQQSGAEVKKPGSSVKVSCKASGGTFSSYAISWVRQAPGQGLEWMGGIIPILGIANYAQKFQGRVTITADESTSTAYMELSSLRSEDTAVYYCATGGSGSYAFDIWGQGTMVTVSS
VL: B1 VL with N32Y, T51A, T53N, E70D, Q79E, S80P, Y91R, N92S, A97S
For the molecule B2, the “binding to human CD276 (OD at 450 nm, ELISA)” value in series [1] is “bound”. In series [2], the “binding to mouse CD276 (OD at 450 nm, ELISA)” value is given as “bound”.
